Tests used:
[1] = molecular target: Bovine mitochondrial cytochrome c, P62894
[2] = molecular target: T1, CycN cytochrome c protein (Pseudomonas putida S16)
T1 chain: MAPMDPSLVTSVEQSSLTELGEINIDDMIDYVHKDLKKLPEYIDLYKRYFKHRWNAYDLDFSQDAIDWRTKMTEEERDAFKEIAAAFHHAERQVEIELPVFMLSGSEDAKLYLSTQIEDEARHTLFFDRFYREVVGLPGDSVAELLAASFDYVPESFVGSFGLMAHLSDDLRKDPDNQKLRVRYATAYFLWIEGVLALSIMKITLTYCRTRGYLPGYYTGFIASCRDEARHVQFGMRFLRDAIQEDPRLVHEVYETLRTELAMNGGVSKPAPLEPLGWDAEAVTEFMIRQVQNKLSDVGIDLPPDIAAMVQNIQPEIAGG

Chain of Bovine mitochondrial cytochrome c, P62894 (P62894 2-105): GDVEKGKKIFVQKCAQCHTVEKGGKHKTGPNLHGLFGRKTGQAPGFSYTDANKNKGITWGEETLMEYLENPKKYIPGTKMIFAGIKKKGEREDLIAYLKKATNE

B1: NicA2 nicotine oxidoreductase (wild-type, Pseudomonas putida S16) (protein)
chain: TQKTNRASTVKGGFDYDVVVVGGGFAGATAARECGLQGYRTLLLEARSRLGGRTFTSRFAGQEIEFGGAWVHWLQPHVWAEMQRYGLGVVEDPLTNLDKTLIMYNDGSVESISPDEFGKNIRIAFEKLCHDAWEVFPRPHEPMFTERARELDKSSVLDRIKTLGLSRLQQAQINSYMALYAGETTDKFGLPGVLKLFACGGWNYDAFMDTETHYRIQGGTIGLINAMLTDSGAEVRMSVPVTAVEQVNGGVKIKTDDDEIITAGVVVMTVPLNTYKHIGFTPALSKGKQRFIKEGQLSKGAKLYVHVKQNLGRVFAFADEQQPLNWVQTHDYSDELGTILSITIARKETIDVNDRDAVTREVQKMFPGVEVLGTAAYDWTADPFSLGAWAAYGVGQLSRLKDLQAAEGRILFAGAETSNGWHANIDGAVESGLRAGREVKQLLS
reduction of bovine cytochrome c, UV-VIS absorbance 250-600 nm for 15 minutes; 6.84 µM bovine cytochrome c with NicA2 and nicotine [1]: The bovine mitochondrial cytochrome c was not efficiently reduced by this system | kobs for the second phase, stopped-flow at 542 nm [2]: invariant at ˜5.5 s^-1 independent of the CycNox concentration used | reduction of CycN heme, UV-VIS absorbance (Soret band, 410 and 550 nm); 3.75 µM CycN, 30 nM NicA2, 100 µM nicotine [2]: a characteristic increase and shift of Soret banding pattern was observed, which indicated that CycN had become reduced | time to complete electron transfer, anaerobic stopped-flow; 15 µM NicA2-Flred mixed with excess CycNox [2]: Electron transfer between NicA2-Flred and CycNox appeared to be very rapid, being complete in under one second

Source: US20230212533
